According to article PMC8133496 (PLoS Biology, 2021):

B1: PR961 single-chain variable fragment (scFv, V domains shown)
VH: QVQLVQSGAEVKKPGASVKLSCKASGYSFTSYWVNWVRQAPGQGLEWIGMIHPSDSETRLNQKFKDRVTITVDKSTSTAYMELSSLRSEDTAVYYCARADGYEWYFDVWGRGTLVTVSS
VL: DIVLTQSPASLAVSPGQRATITCRASESVDSYGNSFMHWYQQKPGQPPKLLIYRASNLESGIPARFSGSGSGTDFTLTINPVEANDVANYYCQQSNEDPWTFGQGTKVEIK
notes: also called PR961 scFv
B2: PR1077 (antibody, V domains shown)
VH: QVQLVESGGGVVQPGRSLRLSCAASGFTFSYYGMHWVRQAPGKGLEWVAVIWYDGSNRFYADSVKGRFTISRDNSKSTLYLQMNSLRAEDTAVYYCATDPPGLRFRFDYWGQGTLVTVSS
VL: not shown
notes: source: HEK 293F or ExpiCHO, transfected, purified (Protein A)
B3: PR953 (antibody, V domains shown)
VH: EVQLQQSGPELVKPGASVKISCKTSGYTFTEYTMHWVKQSHGKSLEWIGGINPNNGDNTYNQKLKGKATLTVHKSSSTAYMELRSLTSEDSAVYYCARDGYPYYYALDYWGQGTSVTVSS
VL: DIVMTQSQKFMSTSVGDRVSVTCKASQNVGTNVAWYQQKPGQSPKPLIYSASSRYSGVPDRFTGSGSGTDFTLTISNVQSEDLAEYFCQQYNNYPWTFGGGTKLEIK
notes: as for B2

Tests used:
Details in all cases: both partners purified
[1] = molecular target: SARS-CoV-2 spike receptor-binding domain (residues 333 to 530), carboxyl-terminal 8xHis tag (Severe acute respiratory syndrome …, UniProt P0DTC2); assay: crystal structure
[2] = molecular target: recombinant SARS-CoV-2 S1 protein (SARS-CoV-2, wild type (reference), UniProt P0DTC2); assay: BLI
[3] = molecular target: recombinant SARS-CoV-2 S1 RBD protein (Severe acute respiratory syndrome …, UniProt P0DTC2); assay: BLI

Row | Binder | binding result [1] | Kd [2] | Kd [3]
1 | B1 | binds | – | –
2 | B2 | – | 0.543 nM | 2.33 nM
3 | B3 | – | – | < 0.001 nM
